Assay results reported in the supplement of paper PMC10567573.

B1: UBE2R2 (parent)
chain: DPQSGELPSERWNPTQNVRTILLS

Variants of: B1
Test: protein stability index of a GFP-peptide fusion (GPS, HEK-293T) (PSI 1-6); higher = more stable
Conditions: c terminus: a fixed tail appended
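Also: lentivirally expressed fusions sorted by FACS into six bins by GFP to DsRed ratio, PSI derived from sequencing read proportions per bin multiplied by bin number.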

For DPQSGELPSERWNPTQNVRTILTS [L23T], which protein stability index is on record?
The protein stability index was 4.12.

Which protein stability index does the source give for DPQSGELPSERWNPTQNVRTILAS [L23A] here?
The protein stability index was 4.23.

For DPQSGELPSERWNPTQNVRTILRS [L23R], which protein stability index is on record?
Its protein stability index is 4.5.

For DPQSGELPSERWNPTQNVRTILHS [L23H], which protein stability index is on record?
Its protein stability index is 4.09.

For DPQSGELPSERWVPTQNVRTILLS [N13V], which protein stability index is on record?
The protein stability index was 3.17.

For DPQSGELPSERWMPTQNVRTILLS [N13M], which protein stability index is on record?
Its protein stability index is 3.79.

Which protein stability index does the source give for DPQSGELPSERWCPTQNVRTILLS [N13C] here?
The protein stability index was 2.78.

For DPQSGELPSEHWNPTQNVRTILLS [R11H], which protein stability index is on record?
The protein stability index was 3.3.

With DPQSGELPSEEWNPTQNVRTILLS [R11E] as the variant, how does the protein stability index read?
The protein stability index was 4.44.

For DPQSGELPSEKWNPTQNVRTILLS [R11K], which protein stability index is on record?
The protein stability index was 3.5.

Which protein stability index does the source give for DPQSGELPSEMWNPTQNVRTILLS [R11M] here?
The protein stability index was 3.22.

For DPQRGELPSERWNPTQNVRTILLS [S4R], which protein stability index is on record?
The protein stability index was 3.87.

For DPQMGELPSERWNPTQNVRTILLS [S4M], which protein stability index is on record?
Its protein stability index is 2.95.

With DPQKGELPSERWNPTQNVRTILLS [S4K] as the variant, how does the protein stability index read?
The protein stability index was 3.75.

For DPQSGELPSERWNPTGNVRTILLS [Q16G], which protein stability index is on record?
The protein stability index was 3.53.

For DPQSGELPSERWNPTINVRTILLS [Q16I], which protein stability index is on record?
Its protein stability index is 2.83.

For DPQSGELPSERWNPTCNVRTILLS [Q16C], which protein stability index is on record?
Its protein stability index is 3.04.

Which protein stability index does the source give for DPQSGELPSERWNPTSNVRTILLS [Q16S] here?
The protein stability index was 3.58.

Which protein stability index does the source give for DPQSGELPSERWNPTKNVRTILLS [Q16K] here?
The protein stability index was 3.51.

For DPQSGELRSERWNPTQNVRTILLS [P8R], which protein stability index is on record?
Its protein stability index is 3.37.

Which protein stability index does the source give for DPQSGELCSERWNPTQNVRTILLS [P8C] here?
Its protein stability index is 4.2.

Which protein stability index does the source give for DPQSGELDSERWNPTQNVRTILLS [P8D] here?
Its protein stability index is 3.68.

For DPQSGELNSERWNPTQNVRTILLS [P8N], which protein stability index is on record?
The protein stability index was 3.53.

Which protein stability index does the source give for DPQSGELTSERWNPTQNVRTILLS [P8T] here?
Its protein stability index is 3.06.

For DIQSGELPSERWNPTQNVRTILLS [P2I], which protein stability index is on record?
Its protein stability index is 2.5.

For DRQSGELPSERWNPTQNVRTILLS [P2R], which protein stability index is on record?
The protein stability index was 3.09.

Which protein stability index does the source give for DVQSGELPSERWNPTQNVRTILLS [P2V] here?
Its protein stability index is 3.61.

Which protein stability index does the source give for DHQSGELPSERWNPTQNVRTILLS [P2H] here?
The protein stability index was 2.88.

Which protein stability index does the source give for DQQSGELPSERWNPTQNVRTILLS [P2Q] here?
The protein stability index was 3.22.

For DPQSGELPSERWNPTQNARTILLS [V18A], which protein stability index is on record?
The protein stability index was 4.38.

Which protein stability index does the source give for DPQSGELPSERWNPTQNKRTILLS [V18K] here?
The protein stability index was 3.78.

Which protein stability index does the source give for DPQSGELPSERWNPTQNNRTILLS [V18N] here?
Its protein stability index is 4.

With DPQSGELPSERWNPTQNMRTILLS [V18M] as the variant, how does the protein stability index read?
The protein stability index was 3.3.

Which protein stability index does the source give for DPQSGELPSERWNPTQNVRTLLLS [I21L] here?
The protein stability index was 3.96.

With DPQSGELPSERWNPTQNVRTSLLS [I21S] as the variant, how does the protein stability index read?
The protein stability index was 4.33.

Which protein stability index does the source give for DPQSGELPSPRWNPTQNVRTILLS [E10P] here?
The protein stability index was 3.51.

With DPQSGELPSDRWNPTQNVRTILLS [E10D] as the variant, how does the protein stability index read?
The protein stability index was 3.43.

With DPQSGELPSERWNPTQNVFTILLS [R19F] as the variant, how does the protein stability index read?
The protein stability index was 2.6.

Which protein stability index does the source give for DPQSGELPSERWNPTQNVITILLS [R19I] here?
The protein stability index was 2.41.

Which protein stability index does the source give for DPQSGELPSERWNPTQNVMTILLS [R19M] here?
Its protein stability index is 2.86.

Which protein stability index does the source give for DPQSGELPSERWNPTQNVNTILLS [R19N] here?
The protein stability index was 4.5.

With DPQSGELPSERWNPTQNVRKILLS [T20K] as the variant, how does the protein stability index read?
The protein stability index was 4.43.

With DPQSGELPSERWNPTQNVRHILLS [T20H] as the variant, how does the protein stability index read?
The protein stability index was 3.6.

Which protein stability index does the source give for DPQSGELPSERWNPTQNVRIILLS [T20I] here?
The protein stability index was 1.65.

For DPQSCELPSERWNPTQNVRTILLS [G5C], which protein stability index is on record?
Its protein stability index is 2.8.

For DPQSKELPSERWNPTQNVRTILLS [G5K], which protein stability index is on record?
Its protein stability index is 3.49.

With DPQSHELPSERWNPTQNVRTILLS [G5H] as the variant, how does the protein stability index read?
The protein stability index was 3.83.

With DPQSRELPSERWNPTQNVRTILLS [G5R] as the variant, how does the protein stability index read?
Its protein stability index is 3.45.

With DPQSSELPSERWNPTQNVRTILLS [G5S] as the variant, how does the protein stability index read?
The protein stability index was 3.61.

For DPQSDELPSERWNPTQNVRTILLS [G5D], which protein stability index is on record?
The protein stability index was 3.98.

Which protein stability index does the source give for DPQSIELPSERWNPTQNVRTILLS [G5I] here?
The protein stability index was 3.24.

Which protein stability index does the source give for DPQSGPLPSERWNPTQNVRTILLS [E6P] here?
The protein stability index was 2.8.

Which protein stability index does the source give for DPQSGLLPSERWNPTQNVRTILLS [E6L] here?
Its protein stability index is 2.61.

With DPQSGGLPSERWNPTQNVRTILLS [E6G] as the variant, how does the protein stability index read?
The protein stability index was 3.3.

With DPQSGMLPSERWNPTQNVRTILLS [E6M] as the variant, how does the protein stability index read?
The protein stability index was 2.88.

For DPQSGELPSERWNPVQNVRTILLS [T15V], which protein stability index is on record?
The protein stability index was 3.48.

With DPQSGELPSERWNPMQNVRTILLS [T15M] as the variant, how does the protein stability index read?
Its protein stability index is 2.86.

Which protein stability index does the source give for DPQSGELPSERWNPWQNVRTILLS [T15W] here?
The protein stability index was 2.13.

Which protein stability index does the source give for DPQSGELPVERWNPTQNVRTILLS [S9V] here?
The protein stability index was 3.81.

For DPQSGELPIERWNPTQNVRTILLS [S9I], which protein stability index is on record?
The protein stability index was 4.09.

For DPQSGELPLERWNPTQNVRTILLS [S9L], which protein stability index is on record?
The protein stability index was 3.76.

For DPQSGELPCERWNPTQNVRTILLS [S9C], which protein stability index is on record?
The protein stability index was 3.9.

Which protein stability index does the source give for DPQSGELPFERWNPTQNVRTILLS [S9F] here?
Its protein stability index is 2.4.

Which protein stability index does the source give for DPQSGELPSERWNPTQDVRTILLS [N17D] here?
Its protein stability index is 3.99.

With DPQSGELPSERWNPTQPVRTILLS [N17P] as the variant, how does the protein stability index read?
Its protein stability index is 4.18.

For DPQSGELPSERWNPTQLVRTILLS [N17L], which protein stability index is on record?
Its protein stability index is 2.54.

Which protein stability index does the source give for DPQSGELPSERWNPTQVVRTILLS [N17V] here?
The protein stability index was 2.4.

For DPQSGELPSERWNDTQNVRTILLS [P14D], which protein stability index is on record?
The protein stability index was 4.12.

With DPQSGELPSERWNATQNVRTILLS [P14A] as the variant, how does the protein stability index read?
Its protein stability index is 3.34.

Which protein stability index does the source give for DPQSGELPSERWNMTQNVRTILLS [P14M] here?
Its protein stability index is 3.09.

For DPQSGELPSERWNETQNVRTILLS [P14E], which protein stability index is on record?
The protein stability index was 4.08.

For DPQSGELPSERWNVTQNVRTILLS [P14V], which protein stability index is on record?
The protein stability index was 3.48.

For DPQSGELPSERWNSTQNVRTILLS [P14S], which protein stability index is on record?
The protein stability index was 3.69.

Which protein stability index does the source give for DPQSGELPSERWNLTQNVRTILLS [P14L] here?
The protein stability index was 2.79.

With DPQSGELPSERVNPTQNVRTILLS [W12V] as the variant, how does the protein stability index read?
Its protein stability index is 4.2.

For DPQSGELPSERENPTQNVRTILLS [W12E], which protein stability index is on record?
Its protein stability index is 4.71.

For DPQSGELPSERQNPTQNVRTILLS [W12Q], which protein stability index is on record?
The protein stability index was 4.44.

For DPQSGELPSERFNPTQNVRTILLS [W12F], which protein stability index is on record?
Its protein stability index is 3.92.

Which protein stability index does the source give for DPLSGELPSERWNPTQNVRTILLS [Q3L] here?
The protein stability index was 3.65.

With DPRSGELPSERWNPTQNVRTILLS [Q3R] as the variant, how does the protein stability index read?
Its protein stability index is 3.4.

With DPQSGEGPSERWNPTQNVRTILLS [L7G] as the variant, how does the protein stability index read?
Its protein stability index is 3.69.

Which protein stability index does the source give for SPQSGELPSERWNPTQNVRTILLS [D1S] here?
Its protein stability index is 2.25.

With APQSGELPSERWNPTQNVRTILLS [D1A] as the variant, how does the protein stability index read?
Its protein stability index is 2.69.

For TPQSGELPSERWNPTQNVRTILLS [D1T], which protein stability index is on record?
Its protein stability index is 2.63.

For IPQSGELPSERWNPTQNVRTILLS [D1I], which protein stability index is on record?
Its protein stability index is 2.67.

Which protein stability index does the source give for DPQSGELPSERWNPTQNVRTILLF [S24F] here?
Its protein stability index is 1.82.

Which protein stability index does the source give for DPQSGELPSERWNPTQNVRTILLD [S24D] here?
The protein stability index was 4.43.

For DPQSGELPSERWNPTQNVRTILLP [S24P], which protein stability index is on record?
The protein stability index was 3.95.

With DPQSGELPSERWNPTQNVRTILLE [S24E] as the variant, how does the protein stability index read?
The protein stability index was 4.23.

For DPQSGELPSERWNPTQNVRTILLH [S24H], which protein stability index is on record?
The protein stability index was 3.58.

For DPQSGELPSERWNPTQNVRTIVLS [L22V], which protein stability index is on record?
Its protein stability index is 3.42.

For DPQSGELPSERWNPTQNVRTIELS [L22E], which protein stability index is on record?
The protein stability index was 5.13.

Which protein stability index does the source give for DPQSGELPSERWNPTQNVRTINLS [L22N] here?
The protein stability index was 4.47.

Which protein stability index does the source give for DPQSGELPSERWNPTQNVRTIRLS [L22R] here?
The protein stability index was 4.29.
